Source: patent US20220273711A1 (published 2022)

Target: biotinylated Bcl2 (wild-type non-optimized Bcl2 with C-terminal Avi and 6xHis-tags) (UniProt P10415 1-207, enzymatically biotinylated using BirA (Avi tag))
Test: BLI; midpoint; Cage plus Key_EGFR, co-localization-independent

Chain of biotinylated Bcl2 (wild-type non-optimized Bcl2 with C-terminal Avi and 6xHis-tags) (P10415 1-207): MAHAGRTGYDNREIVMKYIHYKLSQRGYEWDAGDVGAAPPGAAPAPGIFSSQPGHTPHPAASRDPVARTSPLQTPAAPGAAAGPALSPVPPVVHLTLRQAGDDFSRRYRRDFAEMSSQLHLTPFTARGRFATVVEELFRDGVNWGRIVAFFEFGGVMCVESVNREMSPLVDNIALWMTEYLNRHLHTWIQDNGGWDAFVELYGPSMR

Row | Binder | EC50
1 | Her2_Cage_L209A (Tuned Cage targeted to Her2 by DARPin (L209A)) (designed binder) MGSHHHHHHGSGSENLYFQGSGGSDLGKKLLEAARAGQDDEVRILMANGADVNAKDEYGLTPLYLATAHGHLEIVEVLLKNGADVNAVDAIGFTPLHLAAFIGHLEIAEVLLKHGADVNAQDKFGKTAFDISIGNGNEDLAEILQKLNSGSGSGKPGQASGSELARKLLEASTKLQRLNIRLAEALLEAIARLQELNLELVYLAVELTDPKRIRDEIKEVKDKSKEIIRRAEKEIDDAAKESEKILEEAREAISGSGSELAKLLLKAIAETQDLNLRAAKAFLEAAAKLQELNIRAVELLVKLTDPATIREALEHAKRRSKEIIDEAERAIRAAKRESERIIEEARRLIEKGSGSGSELARELLRAHAQAQRLNLELLRELLRALAQLQELNLDLLRLASELTDEIWIAQELRRIGDEFNAYYADAERLIREAAAASEKISREAERLIR | 23 nM
2 | Her2_Cage_I287S (Tuned Cage targeted to Her2 by DARPin (I287S)) (designed binder) MGSHHHHHHGSGSENLYFQGSGGSDLGKKLLEAARAGQDDEVRILMANGADVNAKDEYGLTPLYLATAHGHLEIVEVLLKNGADVNAVDAIGFTPLHLAAFIGHLEIAEVLLKHGADVNAQDKFGKTAFDISIGNGNEDLAEILQKLNSGSGSGKPGQASGSELARKLLEASTKLQRLNIRLAEALLEAIARLQELNLELVYLAVELTDPKRIRDEIKEVKDKSKEIIRRAEKEIDDAAKESEKILEEAREAISGSGSELAKLLLKAIAETQDLNLRAAKAFLEAAAKLQELNIRAVELLVKLTDPATIREALEHAKRRSKEIIDEAERAIRAAKRESERIIEEARRLIEKGSGSGSELARELLRAHAQLQRLNLELLRELLRALAQLQELNLDLLRLASELTDEIWIAQELRRIGDEFNAYYADAERLIREAAAASEKISREAERLSR | 8.7 nM

More lines, in order of falling EC50, values ahead:

Row | EC50 | Binder
3 | 63 nM | Her2_Cage (Original Cage targeted to Her2 by DARPin) (designed binder) MGSHHHHHHGSGSENLYFQGSGGSDLGKKLLEAARAGQDDEVRILMANGADVNAKDEYGLTPLYLATAHGHLEIVEVLLKNGADVNAVDAIGFTPLHLAAFIGHLEIAEVLLKHGADVNAQDKFGKTAFDISIGNGNEDLAEILQKLNSGSGSGKPGQASGSELARKLLEASTKLQRLNIRLAEALLEAIARLQELNLELVYLAVELTDPKRIRDEIKEVKDKSKEIIRRAEKEIDDAAKESEKILEEAREAISGSGSELAKLLLKAIAETQDLNLRAAKAFLEAAAKLQELNIRAVELLVKLTDPATIREALEHAKRRSKEIIDEAERAIRAAKRESERIIEEARRLIEKGSGSGSELARELLRAHAQLQRLNLELLRELLRALAQLQELNLDLLRLASELTDEIWIAQELRRIGDEFNAYYADAERLIREAAAASEKISREAERLIR
4 | 12 nM | Her2_Cage_I287A (Tuned Cage targeted to Her2 by DARPin (I287A)) (designed binder) MGSHHHHHHGSGSENLYFQGSGGSDLGKKLLEAARAGQDDEVRILMANGADVNAKDEYGLTPLYLATAHGHLEIVEVLLKNGADVNAVDAIGFTPLHLAAFIGHLEIAEVLLKHGADVNAQDKFGKTAFDISIGNGNEDLAEILQKLNSGSGSGKPGQASGSELARKLLEASTKLQRLNIRLAEALLEAIARLQELNLELVYLAVELTDPKRIRDEIKEVKDKSKEIIRRAEKEIDDAAKESEKILEEAREAISGSGSELAKLLLKAIAETQDLNLRAAKAFLEAAAKLQELNIRAVELLVKLTDPATIREALEHAKRRSKEIIDEAERAIRAAKRESERIIEEARRLIEKGSGSGSELARELLRAHAQLQRLNLELLRELLRALAQLQELNLDLLRLASELTDEIWIAQELRRIGDEFNAYYADAERLIREAAAASEKISREAERLAR
5 | 8.4 nM | Her2_Cage_I269S (Tuned Cage targeted to Her2 by DARPin (I269S)) (designed binder) MGSHHHHHHGSGSENLYFQGSGGSDLGKKLLEAARAGQDDEVRILMANGADVNAKDEYGLTPLYLATAHGHLEIVEVLLKNGADVNAVDAIGFTPLHLAAFIGHLEIAEVLLKHGADVNAQDKFGKTAFDISIGNGNEDLAEILQKLNSGSGSGKPGQASGSELARKLLEASTKLQRLNIRLAEALLEAIARLQELNLELVYLAVELTDPKRIRDEIKEVKDKSKEIIRRAEKEIDDAAKESEKILEEAREAISGSGSELAKLLLKAIAETQDLNLRAAKAFLEAAAKLQELNIRAVELLVKLTDPATIREALEHAKRRSKEIIDEAERAIRAAKRESERIIEEARRLIEKGSGSGSELARELLRAHAQLQRLNLELLRELLRALAQLQELNLDLLRLASELTDEIWIAQELRRIGDEFNAYYADAERLSREAAAASEKISREAERLIR
